In assay [1] the target is T1, full length cynomolgus APLNR (MfAPLNR) (cynomolgus (Macaca fascicularis)).
T1 sequence: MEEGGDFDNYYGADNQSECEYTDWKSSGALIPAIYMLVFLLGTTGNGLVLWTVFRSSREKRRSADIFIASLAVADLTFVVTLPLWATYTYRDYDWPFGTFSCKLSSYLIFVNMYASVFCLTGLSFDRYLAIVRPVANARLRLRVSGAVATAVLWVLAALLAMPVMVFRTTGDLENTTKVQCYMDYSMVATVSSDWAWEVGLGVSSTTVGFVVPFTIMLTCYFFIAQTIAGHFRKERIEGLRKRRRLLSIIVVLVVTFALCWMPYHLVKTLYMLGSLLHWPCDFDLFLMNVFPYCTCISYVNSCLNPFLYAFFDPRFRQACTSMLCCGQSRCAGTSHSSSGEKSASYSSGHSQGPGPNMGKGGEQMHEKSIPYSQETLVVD
The assay can be described thus: FACS on HEK293/CRE-luc/MfAPLNR cells.

The target in assay [2] is human Apelin receptor (hAPLNR) of PathHunter eXpress AGTRL1 CHO-K1 beta-Arrestin cells (human) (UniProt P35414). Kind of assay: cell-based or functional assay.
Assay [3] has as its target full-length human APLNR (hAPLNR) (human) (UniProt P35414). The assay can be described thus: cell-based or functional assay.
The target is the same in assay [4]. Kind of assay: FACS on HEK293/CRE-luc/hAPLNR cells.

No end group written: not given here.

In the case of QRPRLSHKGPMPFGGGGSGGGGSGGGGS-{VH of anti‑myc 9E10 antibody} (antibody, part only; not given: anti-myc antibody chains, part only, ends and bridges not checked) [Anti-myc 9E10 Nter VH fusion with (G4S)3 linker (Apelin fused to an irrelevant anti-myc antibody)], in assay [1], the Binding Ratio of Geom. Mean to Unstained Cells is 3 fold. Further, the % Activation at 500 nM antibody or Apelin-antibody fusion, PathHunter beta-Arrestin assay in assay [2] was determined as 6%. In assay [3], this molecule displayed a % Activation at 100 nM mAb (7.5 uM Forskolin), CRE-luc of 53%; a % Activation at 100 nM mAb (10 uM Forskolin), CRE-luc of 37%; an EC50 [M] (7.5 uM Forskolin), CRE-luc of 1.1e-08 M; an EC50 [M] (10 uM Forskolin), CRE-luc greater than 1e-07 M. For the same molecule, in assay [4], the Binding Ratio of Geom. Mean to Unstained Cells worked out at 12 fold.

The values are drawn from patent publication US20190177410A1.
